According to patent US20230310602A1 (published 2023):

Experiments:
[1] = molecular target: T1, HCELL (exofucosylated CD44) on FTVII-treated human MSCs (FuchAdMSCs, adipose-derived); FuchBMMSCs, bone … (human, UniProt P16070 21-742, fucose installed in α(1,3)-linkage onto sialyllactosaminyl glycans of CD44 by fucosyltransferase VII with GDP-fucose (creates sLe^x)); test: cell-based or functional assay
[2] = molecular target: T1, HCELL (exofucosylated CD44) on …; test: cell-based or functional assay; remark: listed apart in the source

T1 sequence (P16070 21-742): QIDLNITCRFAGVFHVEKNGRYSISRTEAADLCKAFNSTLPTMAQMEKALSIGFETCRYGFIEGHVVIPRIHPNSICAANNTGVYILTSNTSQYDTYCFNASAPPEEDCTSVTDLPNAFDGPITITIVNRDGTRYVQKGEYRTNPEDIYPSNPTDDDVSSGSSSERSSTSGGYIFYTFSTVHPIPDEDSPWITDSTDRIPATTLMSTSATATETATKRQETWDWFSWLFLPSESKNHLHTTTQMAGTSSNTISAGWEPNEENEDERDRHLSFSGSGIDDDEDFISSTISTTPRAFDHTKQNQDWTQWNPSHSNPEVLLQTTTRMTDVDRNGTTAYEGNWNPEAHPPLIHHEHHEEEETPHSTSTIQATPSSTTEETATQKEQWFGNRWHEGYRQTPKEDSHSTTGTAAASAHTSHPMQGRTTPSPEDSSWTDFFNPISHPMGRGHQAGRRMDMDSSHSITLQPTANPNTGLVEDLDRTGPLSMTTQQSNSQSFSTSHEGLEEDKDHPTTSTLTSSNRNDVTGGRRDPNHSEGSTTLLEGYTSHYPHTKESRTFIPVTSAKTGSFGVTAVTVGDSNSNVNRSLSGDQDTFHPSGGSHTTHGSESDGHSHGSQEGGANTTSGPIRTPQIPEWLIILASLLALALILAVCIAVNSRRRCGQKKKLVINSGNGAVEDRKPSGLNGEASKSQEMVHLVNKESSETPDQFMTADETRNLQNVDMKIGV

- IDO in supernatant, ratio FuchAdMSCs/UhAdMSCs, mE-IG (1 µg/ml) [1]: 6.75 ratio
- IDO in supernatant, ratio FuchAdMSCs/UhAdMSCs, mE-IG (5 µg/ml) [1]: 7.72 ratio
- IDO in supernatant, ratio FuchBMMSCs/UhBMMSCs, mE-IG (1 µg/ml) [1]: 4.71 ratio
- IDO in supernatant, ratio FuchBMMSCs/UhBMMSCs, mE-IG (5 µg/ml) [1]: 4.74 ratio
- IL-10 in supernatant, ratio FuchAdMSCs/UhAdMSCs, mE-IG (1 µg/ml) [1]: 12.7 ratio
- IL-10 in supernatant, ratio FuchAdMSCs/UhAdMSCs, mE-IG (5 µg/ml) [1]: 16 ratio
- IL-10 in supernatant, ratio FuchBMMSCs/UhBMMSCs, mE-IG (1 µg/ml) [1]: 3.87 ratio
- IL-10 in supernatant, ratio FuchBMMSCs/UhBMMSCs, mE-IG (5 µg/ml) [1]: 4.85 ratio
- NO2^-/NO3^- in supernatant, ratio FuchAdMSCs/UhAdMSCs, mE-IG (1 µg/ml) [1]: 5.12 ratio
- NO2^-/NO3^- in supernatant, ratio FuchAdMSCs/UhAdMSCs, mE-IG (5 µg/ml) [1]: 5.9 ratio
- NO2^-/NO3^- in supernatant, ratio FuchBMMSCs/UhBMMSCs, mE-IG (1 µg/ml) [1]: 3.31 ratio
- NO2^-/NO3^- in supernatant, ratio FuchBMMSCs/UhBMMSCs, mE-IG (5 µg/ml) [1]: 5.14 ratio
- TGFβ in supernatant, ratio FuchAdMSCs/UhAdMSCs, mE-IG (1 µg/ml) [1]: 12.2 ratio
- TGFβ in supernatant, ratio FuchAdMSCs/UhAdMSCs, mE-IG (5 µg/ml) [1]: 12.4 ratio
- TGFβ in supernatant, ratio FuchBMMSCs/UhBMMSCs, mE-IG (1 µg/ml) [1]: 8.11 ratio
- TGFβ in supernatant, ratio FuchBMMSCs/UhBMMSCs, mE-IG (5 µg/ml) [1]: 8.5 ratio
- IL-10 production of adipose-derived hAdMSCs, ratio of FuchMSCs/UhMSCs for E-selectin exposure [2]: 10 fold
B1: Recombinant mouse E-selectin-human Fc chimera (mE-Ig) (Fc fusion, UniProt Q00690 22-557, looked up, not shown: a dimerising Fc or GST)
chain: WYYNASSELMTYDEASAYCQRDYTHLVAIQNKEEINYLNSNLKHSPSYYWIGIRKVNNVWIWVGTGKPLTEEAQNWAPGEPNNKQRNEDCVEIYIQRTKDSGMWNDERCNKKKLALCYTASCTNASCSGHGECIETINSYTCKCHPGFLGPNCEQAVTCKPQEHPDYGSLNCSHPFGPFSYNSSCSFGCKRGYLPSSMETTVRCTSSGEWSAPAPACHVVECEALTHPAHGIRKCSSNPGSYPWNTTCTFDCVEGYRRVGAQNLQCTSSGIWDNETPSCKAVTCDAIPQPQNGFVSCSHSTAGELAFKSSCNFTCEQSFTLQGPAQVECSAQGQWTPQIPVCKAVQCEALSAPQQGNMKCLPSASGPFQNGSSCEFSCEEGFELKGSRRLQCGPRGEWDSKKPTCSAVKCDDVPRPQNGVMECAHATTGEFTYKSSCAFQCNEGFSLHGSAQLECTSQGKWTQEVPSCQVVQCPSLDVPGKMNMSCSGTAVFGTVCEFTCPDDWTLNGSAVLTCGATGRWSGMPPTCEAPVSPTRP
